Columns and labels:
[1] = biological target: T1, Construct B (m IL2-2x(SG4) - MMPcs1 - 2x (G4S) - IL2Ralpha - mIgG1 Fc)
T1 chain: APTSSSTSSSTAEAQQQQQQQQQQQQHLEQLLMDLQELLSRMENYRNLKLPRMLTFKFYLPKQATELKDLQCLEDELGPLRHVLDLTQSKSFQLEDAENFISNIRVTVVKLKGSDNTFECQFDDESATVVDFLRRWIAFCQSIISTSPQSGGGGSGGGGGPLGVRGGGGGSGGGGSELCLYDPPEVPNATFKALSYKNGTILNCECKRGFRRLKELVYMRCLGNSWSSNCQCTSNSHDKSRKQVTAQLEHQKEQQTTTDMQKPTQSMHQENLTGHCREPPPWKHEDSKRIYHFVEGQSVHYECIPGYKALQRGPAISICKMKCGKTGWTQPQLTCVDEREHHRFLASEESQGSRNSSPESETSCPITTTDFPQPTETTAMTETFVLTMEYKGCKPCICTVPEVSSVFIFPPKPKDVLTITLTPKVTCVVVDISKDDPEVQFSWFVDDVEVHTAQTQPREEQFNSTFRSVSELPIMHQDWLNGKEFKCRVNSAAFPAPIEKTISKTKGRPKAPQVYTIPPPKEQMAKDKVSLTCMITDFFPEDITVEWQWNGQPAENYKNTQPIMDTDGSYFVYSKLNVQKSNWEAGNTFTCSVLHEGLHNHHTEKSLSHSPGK

[2] = biological target: T2, Construct A (mIL2- 2x(SG4) - MMPcs1 - 2x(G4S) - IL2Ralpha - 6His)
T2 chain: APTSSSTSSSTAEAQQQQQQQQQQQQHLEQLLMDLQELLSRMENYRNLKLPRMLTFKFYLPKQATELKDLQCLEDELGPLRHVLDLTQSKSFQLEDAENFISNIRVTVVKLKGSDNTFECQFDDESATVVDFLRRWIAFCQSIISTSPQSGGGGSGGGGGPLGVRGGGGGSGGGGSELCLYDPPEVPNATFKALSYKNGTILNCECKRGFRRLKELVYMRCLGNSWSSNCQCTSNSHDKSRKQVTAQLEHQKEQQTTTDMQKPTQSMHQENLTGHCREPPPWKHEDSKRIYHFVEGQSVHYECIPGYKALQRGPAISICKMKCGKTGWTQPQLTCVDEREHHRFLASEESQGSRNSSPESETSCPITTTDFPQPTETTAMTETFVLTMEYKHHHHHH

[3] = biological target: Construct E (Hu IL2(C125S)- 2x(SG4) - MMPcs1 - 2x(G4S) - IL2Ralpha - hu IgG1 Fc - 6xHIS)
Construct E (Hu IL2(C125S)- 2x(SG4) - MMPcs1 - 2x(G4S) - IL2Ralpha - hu IgG1 Fc - 6xHIS), sequence (chain, as listed by the source C125S): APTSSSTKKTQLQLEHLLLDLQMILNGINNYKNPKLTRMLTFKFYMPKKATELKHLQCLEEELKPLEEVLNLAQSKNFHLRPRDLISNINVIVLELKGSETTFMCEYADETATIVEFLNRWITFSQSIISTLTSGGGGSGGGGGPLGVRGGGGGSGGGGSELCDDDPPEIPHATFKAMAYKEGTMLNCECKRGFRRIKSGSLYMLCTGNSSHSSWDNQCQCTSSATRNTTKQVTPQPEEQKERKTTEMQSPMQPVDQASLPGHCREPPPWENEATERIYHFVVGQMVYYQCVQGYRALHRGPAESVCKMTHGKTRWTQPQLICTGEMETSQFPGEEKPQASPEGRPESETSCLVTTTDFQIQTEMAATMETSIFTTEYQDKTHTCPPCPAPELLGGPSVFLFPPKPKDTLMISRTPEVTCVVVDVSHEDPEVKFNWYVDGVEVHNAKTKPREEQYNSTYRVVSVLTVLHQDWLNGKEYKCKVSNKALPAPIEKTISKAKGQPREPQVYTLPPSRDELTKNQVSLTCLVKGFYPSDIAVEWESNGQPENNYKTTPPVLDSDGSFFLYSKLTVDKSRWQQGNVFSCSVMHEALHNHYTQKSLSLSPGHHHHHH

B1: Recombinant MMP9 (R&D Systems), activated with p-aminophenylmercuric acetate (protein)
chain: FQTFKGLKWDHHNITYWIQNYSEDLPRDMIDDAFARAFAVWGEVAPLTFTRVYGPEADIVIQFGVAEHGDGYPFDGKDGLLAHAFPPGAGVQGDAHFDDDELWSLGKGVVIPTYYGNSNGAPCHFPFTFEGRSYSACTTDGRNDGTPWCSTTADYDKDGKFGFCPSERLYTEHGNGEGKPCVFPFIFEGRSYSACTTKGRSDGYRWCATTANYDQDKLYGFCPTRVDATVVGGNSAGELCVFPFVFLGKQYSSCTSDGRRDGRLWCATTSNFDTDKKWGFCPDQGYSLFLVAAHEFGHALGLDHSSVPEALMYPLYSYLEGFPLNKDDIDGIQYLYGRGSKPDPRPPATTTTEPQPTAPPTMCPTIPPTAYPTVGPTVGPTGAPSPGPTSSPSPGPTGAPSPGPTAPPTAGSSEASTESLSPADNPCNVDVFDAIAEIQGALHFFKDGWYWKFLNHRGSPLQGPFLTARTWPALPATLDSAFEDPQTKRVFFFSGRQMWVYTGKTVLGPRSLDKLGLGPEVTHVSGLLPRRLGKALLFSKGRVWRFDLKSQKVDPQSVIRVDKEFSGVPWNSHDIFQYQDKAYFCHGKFFWRVSFQNEVNKVDHEVNQVDDVGYVTYDLLQCP
[1]
  cleavage of the fusion protein, SDS-PAGE and Western blot: essentially complete cleavage of the fusion proteins by MMP9 protease was seen after overnight incubation
  cleavage of the fusion protein, Western blot: Cleavage product was detectable at 1 hour, and the full-length cytokine prodrug gave only a faint band at the 20 hour +MMP time point
[2]
  cleavage of the fusion protein, SDS-PAGE and Western blot: essentially complete cleavage of the fusion proteins by MMP9 protease was seen after overnight incubation
  cleavage of the fusion protein, Western blot: Cleavage product was detectable at 1 hour, and the full-length cytokine prodrug was substantially undetectable at the overnight +MMP time point
[3]
  cleavage of the fusion protein, SDS-PAGE and Western blot: essentially complete cleavage of the fusion proteins by MMP9 protease was seen after overnight incubation
  cleavage of the fusion protein, Western blot: Cleavage product was detectable at 1 hour, and the full-length cytokine prodrug gave essentially no band at the 22 hour +MMP time point
